Assays:
[1] = target: EndoMA1 (MIAR_33230), GH183 (DUF4185) endo-D-arabinanase from Microbacterium arabinogalactanolyticum, recombinant wild type (Microbacterium arabinogalactanolyticum JCM 9171); test: SEC-SAXS; SEC-SAXS of EndoMA1 at beamline BL-10C of the Photon Factory, same column and buffer as SEC-MALS/RI; profile compared with the dimeric apo crystal structure
[2] = target: EndoMA1 (MIAR_33230), GH183 (DUF4185) endo-D-arabinanase from Microbacterium arabinogalactanolyticum, recombinant wild type (Microbacterium arabinogalactanolyticum JCM 9171); test: crystal structure; EndoMA1 wild type, apo form, 1.60 Å; sitting-drop vapor diffusion, 20 °C
[3] = target: EndoMA1 (MIAR_33230), GH183 (DUF4185) endo-D-arabinanase from Microbacterium arabinogalactanolyticum, recombinant wild type (Microbacterium arabinogalactanolyticum JCM 9171); test: SEC-MALS; SEC-MALS/RI of EndoMA1, KW403-4F column (Shodex), DAWN HELEOS II; self-association in solution
[4] = target: EndoMA1 D51N catalytic residue mutant (Microbacterium arabinogalactanolyticum JCM 9171); test: crystal structure; EndoMA1 D51N co-crystallised with 10 mM A9LT, 1.80 Å; microseeding, 30 °C; four chains (A-D) in the asymmetric unit
[5] = target: ExoMA1 (MIAR_33200), GH172 exo-α-D-arabinofuranosidase from Microbacterium arabinogalactanolyticum, recombinant (Microbacterium arabinogalactanolyticum JCM 9171); test: crystal structure; ExoMA1 apo form, 2.42 Å; dodecamer in the asymmetric unit; sitting-drop vapor diffusion, 20 °C
[6] = target: ExoMA1 (MIAR_33200), GH172 exo-α-D-arabinofuranosidase from Microbacterium arabinogalactanolyticum, recombinant (Microbacterium arabinogalactanolyticum JCM 9171); test: negative-stain transmission electron microscopy; purified ExoMA1 0.1 mg/mL in 10 mM Tris-HCl (pH 7.5), 500 mM NaCl, on carbon-coated copper grids, 2% uranyl acetate, 120 kV
[7] = target: ExoMA1 (MIAR_33200), GH172 exo-α-D-arabinofuranosidase from Microbacterium arabinogalactanolyticum, recombinant (Microbacterium arabinogalactanolyticum JCM 9171); test: SEC; SEC of ExoMA1 in solution (Supplementary Fig. 19a)

EndoMA1 (MIAR_33230), GH183 (DUF4185) endo-D-arabinanase from Microbacterium arabinogalactanolyticum, recombinant wild type (enzyme)
stoichiometry N [1]: 2 | stoichiometry N [2]: 2 | stoichiometry N [3]: 2

EndoMA1 D51N catalytic residue mutant (enzyme)
stoichiometry N [4]: 2

ExoMA1 (MIAR_33200), GH172 exo-α-D-arabinofuranosidase from Microbacterium arabinogalactanolyticum, recombinant (enzyme)
stoichiometry N [5]: 12 | stoichiometry N [6]: 12 | stoichiometry N [7]: > 7

— publication PMC10509167, “Identification and characterization of endo-α-, exo-α-, and exo-β-D-arabinofuranosidases degrading lipoarabinomannan and arabinogalactan of mycobacteria” (Nature Communications, 2023)
